This passage reports response (RU) on injection of 25 nM CypA results from article PMC2118669.

The target of this assay is recombinant AIF (UniProt Q9Z0X1). The assay can be described thus: SPR. On the technique in general: Surface plasmon resonance follows binding to a sensor surface in real time, without labels.
Sequence of UniProt Q9Z0X1 (Q9Z0X1 102-612): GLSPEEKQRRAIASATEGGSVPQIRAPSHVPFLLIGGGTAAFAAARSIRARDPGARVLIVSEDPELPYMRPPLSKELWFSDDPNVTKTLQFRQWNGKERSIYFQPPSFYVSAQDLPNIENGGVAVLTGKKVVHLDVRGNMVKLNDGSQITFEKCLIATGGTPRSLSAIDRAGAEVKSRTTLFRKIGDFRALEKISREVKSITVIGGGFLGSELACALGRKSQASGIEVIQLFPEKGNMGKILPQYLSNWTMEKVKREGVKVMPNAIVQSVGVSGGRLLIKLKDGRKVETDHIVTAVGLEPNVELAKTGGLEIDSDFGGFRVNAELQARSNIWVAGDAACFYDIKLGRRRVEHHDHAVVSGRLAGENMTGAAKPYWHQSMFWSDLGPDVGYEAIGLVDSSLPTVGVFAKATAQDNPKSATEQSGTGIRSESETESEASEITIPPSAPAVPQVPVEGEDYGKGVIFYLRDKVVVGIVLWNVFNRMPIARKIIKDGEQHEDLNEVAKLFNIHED

As to “recombinant CypA (from UniProt P62937 1-165) (natural protein)”, the response (RU) on injection of 25 nM CypA is 123 RU.
